The data set concerns the molecule itself. Briefly: cryo-EM structure; ADP-bound hLon variants, 1.3 mg/ml, single-particle cryo-EM (cryoSPARC); homo-hexamer.

B1: human Lon protease Y394E phosphorylation-mimicking mutant (enzyme, UniProt P36776 68-959, looked up)
chain: FWEASSRGGGAFSGGEDASEGGAEEGAGGAGGSAGAGEGPVITALTPMTIPDVFPHLPLIAITRNPVFPRFIKIIEVKNKKLVELLRRKVRLAQPYVGVFLKRDDSNESDVVESLDEIYHTGTFAQIHEMQDLGDKLRMIVMGHRRVHISRQLEVEPEEPEAENKHKPRRKSKRGKKEAEDELSARHPAELAMEPTPELPAEVLMVEVENVVHEDFQVTEEVKALTAEIVKTIRDIIALNPLYRESVLQMMQAGQRVVDNPIYLSDMGAALTGAESHELQDVLEETNIPKRLYKALSLLKKEFELSKLQQRLGREVEEKIKQTHRKELLQEQLKIIKKELGLEKDDKDAIEEKFRERLKELVVPKHVMDVVDEELSKLGLLDNHSSEFNVTRNYLDWLTSIPWGKYSNENLDLARAQAVLEEDHYGMEDVKKRILEFIAVSQLRGSTQGKILCFYGPPGVGKTSIARSIARALNREYFRFSVGGMTDVAEIKGHRRTYVGAMPGKIIQCLKKTKTENPLILIDEVDKIGRGYQGDPSSALLELLDPEQNANFLDHYLDVPVDLSKVLFICTANVTDTIPEPLRDRMEMINVSGYVAQEKLAIAERYLVPQARALCGLDESKAKLSSDVLTLLIKQYCRESGVRNLQKQVEKVLRKSAYKIVSGEAESVEVTPENLQDFVGKPVFTVERMYDVTPPGVVMGLAWTAMGGSTLFVETSLRRPQDKDAKGDKDGSLEVTGQLGEVMKESARIAYTFARAFLMQHAPANDYLVTSHIHLHVPEGATPKDGPSAGCTIVTALLSLAMGRPVRQNLAMTGEVSLTGKILPVGGIKEKTIAAKRAGVTCIVLPAENKKDFYDLAAFITEGLEVHFVEHYREIFDIAFPDEQAEALAVER
notes: human mitochondrial Lon protease (LONP1) lacking the N-terminal MTS, with Y394E; also called hLon Y394E; source: E. coli Rosetta 2 (DE3) or E. coli C321 (DE3), purified (NiNTA agarose, Superose 6 SEC)
B1: the “stoichiometry N” value came out at 6.

For the origin of these results see PMC11061198, “Polyphosphate and tyrosine phosphorylation in the N-terminal domain of the human mitochondrial Lon protease disrupts its functions” (Scientific Reports, 2024).
